The target in this assay is T1, peptide TM1 (N'-TRVTSFLDWIHEQMERDLKT-C').
T1 construct: Peptide antigen coated on the plate
T1 peptide: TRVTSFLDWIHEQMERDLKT
Nature of the assay: binding implied by the name and by sequencing of ELISA positive clones (phage ELISA on coated TM1); not said in so many words. A general note: An ELISA detects its analyte on a solid surface through an enzyme-linked reagent.

B1: TM1 scFV (scFv)
scFv: ETTLTQSPSSLSASVGDRVTITCRTSQTINNYLNWYQQKPGKAPKVLIFGASRLQSGVPSRFSGSGSGTHFTLTITSLQPEDVATYYCQQSYGTPYTFGQGTKVEIKVDITSYNVYYTKLSLEQVQLQQWGAGLLKPSETLSLTCAIYNGSFGGYYWNWIRQPPGKGLEWIGEINQRESTNFNPSFKSRVTMSVDTSNNQFSLRLSSLTAADTAVYFCARGLYYDTTGFFDAFAVWGQGTTVTVSHLGLMGHHHHHH
In the case of B1, the binding result is “binds”.

Values taken from patent US20060057632A1 (KEIO UNIVERSITY, published 2006).
